B1: 129870: Poppy cDNA clone; auxin tolerance hit sequence (nucleic acid)
DNA: TTAATTAAGTCGACGAATTCAAATTAGGTCTAAAGATGGCGTCTTTAGCTCAACAATTCTCAGGATTAAGATGCCCACCACTTTCTTCTTCTCATCTAACAAAACCCTTTTCTTCAAAACCCCAGAAAACCACCTTTTCACCTATAGTTTCAGCAGCTGTCATTTCTAATGCACAAACTAAAGAAAGAAGTAGACTTAAAGAAATCTTCGAAGATGCTTATGAAAGATGTAGAACTACTCCAATGCAAGGTGTTGGTTTTACTGTTGATGATTTTCATGCTGCTCTTGAAAAGTATGATTACAATTCTGAGATTGGTACCAGGGTTAAAGGAACTGTGTTCTGTACAGACAACAACGGAGCATTAGTTGACATCACGGCGAAATCTTCAGCCTATTTACCAATCCAAGAGGCATGTATTCACAAAATAAAGCATGTAGAAGAAGCAGGAATAGTTGCAGGCCTACGTGAAGAGTTTGTGATTATTGGAGAGAACCAAGCTGATGATAGCTTGATCTTGAGTTTGCGTTCAATCCAATTTGACCTCGCATGGGAACGGTGTAGACAACTTCAGGCAGAGGATGTCGTCCTCAAGGGTAAGGTTGTTGGTGGAAACAAAGGCGGTGTGGTGGCAATTGTCGAAGGCCTTCGTGGTTTTATTCCATTCTCACAAATATCTTCAAAATCAACCGCGGAAGATCTCATTGATAAGGAGCTTCCTCTGAAATTTGTGGAAGTTGATGAGGAGCAGTCTAGACTTGTCCTCAGTAATCGCAAGGCCATGGCAGACAGCCAGGCACAGCTTGGTATTGGATCAGTTGTCACTGGAACAGTACAGAGTCTTAAGCCATATGGCGCTTTCATCGACATTGGTGGAATCAATGGTCTTCTTCATGTTAGTCAAATTAGTCATGATCGTGTCTCGGATATTGCAACAGTTCTTCAACCCGGCGACACTCTAAAGGTGATGATATTGAGCCACGACCGTGAGAGAGGCCGAGTCAGTCTATCCACCAAAAAGCTAGAGCCTACTCCAGGAGATATGATCCGTAACCCCAAGCTTGTTTTCGAGAAGGCTGAAGAAATGGCTCAGACATTCAGGCAGAGAATAGCTCAAGCAGAAGCTATGGCCCGTGCGGACATGCTGAGATTCCAACCCGAGAGTGGATTGACTCTAAGCTCAGACGGCATCTTAGGTCCCCTGACGCCAGACTTGCCTGCTGAAGGTCTAGATTTGAGCGACATTCCTGCAGCTGATGATGCATAGAAACCAATAAATATGAATTAAATCTGTCTTGACGTTTCTTCTCATCACCATTTTTAGGCTATGTAAGATGGGTCTATAGGTTGTTCAAAGTGTTGACTTGTGTATTTATCTTGATAGTTCAAAGTGTACTTCTTTAAGCGATAATCATTGAAAAGAAAAAATGGAGAAGGTAAAAGATAAAAATATCCAAAAAAAAAAAAAAAAAAAAAAAA
modifications: Poppy
B2: 130994: Poppy cDNA clone; auxin tolerance hit sequence (nucleic acid)
DNA: GAATTCAATCAAATGGCTACTGCTAGAGTTTTAGCTGCTAGTATGTTGCATGAATGCAACAACACTCACAGTGCTTCATTTCTTTTGAGACAATCTTCTTTCATCTTACCTATTAAACATCAAAGTATTAATTTCAGTAGAAGAGCATCTTCTAGGAGAGCTTTTACTTGCAAATCTCTTTACAAACCTGAAATTCAAATCAAACAAGAAGGTGAACCTCAAACCCTAGATTACAGAGTCTTCTTTCATGATAAATCTGGCAAAAAGCTTTCACCTTGGCATGATGTACCATTGCAATTGGGTGATGGAGTGTTCAATTTTATCGTGGAAATACCAAAAGAGACAAGTGCAAAGATGGAAGTTGCAACTGATGAGCCATATACTCCCATTAAACAGGACACCAAGAAGGGAAAACTTAGATTCTACCCCTACAACATCAATTGGAACTATGGATTGCTCCCACAGACATGGGAAGACCCAACAGTAGCTAATTCTGAAGTTGAAGGGGCATTCGGAGATAATGATCCAGTTGATGTTGTTGAAATTGGGGAGAGGCAAGGAAAAATTGGCGAGATTCTTAAAGTCAAGCCTTTAGGTGCTTTGGCTATGATTGACGAAGGAGAACTCGACTGGAAAATTGTTGCGATTTCGTTGGATGACCCAAAAGCTTCACTCGTCAATGATGTTGGTGATGTTGAGAAACATTTCCCGGGCACTCTCACTGCTATAAGAGATTGGTTCAGAGACTACAAGATCCCAGATGGAAAGCCTGCCAATAAGTTTGGACTTGGGAACAAAGCAGCCAACAAGGATTATGCTCTGAAGGTAATAACTGAAACCAACGAAGCTTGGGCTAAACTTGTCAAGAGAACTGTTCCTGCTGGGGAGCTCTCCCTTCTGTAAATTTTGAATTTTTAAAAGTTGAAGATAAGAGGCACTTTGGCCCGCTCCTATCCCCCTCCTCTCTCTATTGTTTTCTTTCATGCTGGATTCCAAACAAACTTCCTCCAATTTTTTGGACGAAGTATTGATAATTTCTAATCATTGAGCTCCATTTTTCAAAAAAAAAAAA
modifications: Poppy

What was measured:
Nicotiana benthamiana [1] = assay: Evaluation of auxin tolerance in greenhouse plants inoculated with clone transcript and sprayed with herbicide; type: in vivo; conditions: greenhouse; 30% or more of test population tolerant by 14 dat
Procedure: All primary hit sequences were evaluated for tolerance in larger plants, maintained under greenhouse conditions as described below.
Plant Growth and Maintenance. Nb seeds were sown in 6.5 cm pots filled with Redi-earth medium (The Scotts Company, Marysville, Ohio) pre-wetted by injection of Hoagland's fertilizer solution [all from the Scotts Company: 147 kg Peters Excel 15-15-15 Cal-Mag, 68 kg Peters Excel 15-0-0 Cal-Lite (15% Ca), and 45 kg Peters Excel 10-0-0 MagNitrate (10% Mg) in hot tap water to 596 L total volume] into irrigation water at a ratio of 200:1, using an injection system (H. E. Anderson, Muskogee Okla,). Seededpots were placed in the greenhouse for 1 day, transferred to a 27° C. germination chamber (Carolina Greenhouses, Kinston, N.C.) for 2 days, and then returned to the greenhouse. Shade curtains (33% transmittance) were used in the greenhouse to reduce solar intensity. To ensure 16 hour day length and supplement solar radiation on overcast days, artificial lighting consisting of a 1:1 mixture of metal halide and high pressure Sylvania sodium lamps was used, delivering approximately 220 μmol/m^2/s. Evaporative cooling and steam heat were used to maintain a daytime set point of 27° C. and a nighttime temperature of 22° C. At approximately 7 days post sowing (dps), seedlings were thinned to one seedling per pot and at 17 to 21 dps, the pots were spaced farther apart to accommodate plant growth. Plants were watered with Hoagland's solution as required. Following inoculation, waste irrigation water was collected and treated with 0.5% sodium hypochlorite for 10 minutes to neutralize any viral contamination before discharging into the municipal sewer.
Plant Inoculation. For each clone, 50 test plants as well as 10 GFP and bar (Thompson et al., EMBO J. 6:2519 [19870]) negative control plants were inoculated as follows: 2.0 mL of inoculum per clone were prepared by combining equal volumes of NCAP transcript and FES buffer [0.1 M glycine, 0.06 M K2HPO4, 1% sodium pyrophosphate, 1% diatomaceous earth (Sigma Chemical Company, St. Louis, Mo.), and either 1% silicon carbide (Aldrich Chemical Company, Milwaukee, Wis.), or 1% Bentonite (Sigma Chemical Company, St. Louis, Mo.)]. The inoculum was applied to each plant at 17 days post sowing by pipetting onto the upper surface of leaves 3 and 4 (˜20 μL per leaf). The inoculum was then spread across each leaf surface using a 3″ cotton tipped applicator (Calapro Swab, Fisher Scientific, Pittsburgh, Pa.) and a gloved finger to support the leaf. Following inoculation the plants were misted with deionized water.
Infection Scoring. At 8 days post inoculation (dpi), the plants were visually examined and a numerical score was assigned to each plant to indicate the extent of viral infection symptoms: 0=no infection, 1=possible infection, 2=infection symptoms limited to leaves <50-75% fully expanded, 3=typical systemic infection, 4=atypically severe infection, often accompanied by moderate to severe wilting and/or necrosis. Plants receiving an infection rating of 0, 1, or 4 were discarded.
Herbicide spraying. At 9 dpi, the well infected plants (infection score of 3, sometimes 2) were divided into 3 treatment groups. Group 1, to be sprayed with solvent only, contained 4 plants per test clone (2 plants per negative control) and Groups 2 and 3, to be treated with 13 or 40 g ae/ha, respectively, each consisted of 12 test plants per clone and 2 plants per negative control. […]

Nicotiana benthamiana [2] = assay: Cross-resistance testing against six auxin compounds (greenhouse); type: in vivo; conditions: for tolerance to picloram (Compound #5): 10 g ae/ha and 1/2x; for tolerance to positive control 4-amino-3,6-dichloropyridine-2-carboxylic acid (Compound #6): 10 g ae/ha and 1/2x (5 g ae/ha); for tolerance to dicamba (Compound #3): 64 g ae/ha and 1/2x; for tolerance to quinclorac (Compound #1): 200 g ae/ha and 1/2x; for extent of cross-resistance to the six auxin compounds: two trials, two doses per auxin, thresholds 25% or 35% injury or less
Description: Six compounds, representing five classes of auxin chemistry, were selected for testing the extent of auxinic tolerance of five hit sequences (129965 (SEQ ID NO:10), 130213 (SEQ ID NO: 14), 130294 (SEQ ID NO:360), 130994 (SEQ ID NO:361), and 129870 (SEQ ID NO:359)). The compounds included the following: • 1) quinclorac (BASF Corp., Research Triangle, N.C.) • 2) (2,4-dichlorophenoxy) acetic acid (Dow AgroSciences, Indianapolis, Ind.) • 3) dicamba (Monsanto, St. Louis, Mo.) • 4) benazolin (AgrEvo USA Company, Wilmington, Del.) • 5) picloram (Dow AgroSciences, Indianapolis, Ind.) • 6) 4-amino-3,6-dichloropyridine-2-carboxylic acid (Dow AgroSciences, Indianapolis, Ind.) Compound #6 served as a positive control, as these five sequences were identified for their herbicide tolerant function using this auxin (see Example 9). Compound #1 represents the quinoline carboxylic acid chemical family, #2 is in the phenoxy carboxylic acid class, #3 is benzoic acid chemistry, #4 is unique to any currently defined class, and #5 is in the same family as the positive control, pyridine carboxylic acids.
The protocol was essentially the same as that described in Example 9 for greenhouse evaluations. However, an individual experiment consisted of 200 test plants plus 35 GFP and 35 bar negative control plants inoculated per clone. […] Two doses per auxin were tested, with as many as 12 well-infected test plants and 2 of each of the negative controls per dose.
The six auxin solutions were prepared by dissolving solid compound in General Purpose Solvent (GPS: 97%DMSO: 3% acetone) to achieve the following spray rates (g ae/ha) when using the spray applicator and parameters outlined in Example 9: Compound #1) 200; 2) 42; 3) 64; 4) 200; 5) 10; 6) 10. From each of these solutions, a portion was diluted with an equal volume of GPS, resulting in 1× (“high dose”) and ½× (“low dose”) concentrations for spraying. Before spray application, each auxin solution was mixed with an equal volume of diluent containing surfactants for effective penetration. The diluent was prepared as follows: 420 mL GPS, 460 mL DI water, 120 mL isopropyl alcohol, 10.167 mL Agri-Dex (Helena Chemical Co., Memphis, Tenn.), and 0.167 mL Triton X-155 (Sigma Chemical Co., St. Louis, Mo.). In addition to the 200 and 100 g ae/ha rates tested for Compound #4 (benazolin), a concentration of 250 g ae/ha was also formulated as described above and tested.
Plants were sprayed and evaluated as described in Example 9. FIG. 7 summarizes the sequences tested and the highest dose of the compounds against which tolerance was observed. […] Results are reported in FIG. 7 for each of the trials with each construct.
The positive control (Compound #6) was formulated differently in this set of evaluations from that described in Example 9, for consistency in the solvent/surfactant background from which to compare the activity of the individual sequences against each auxin. Thus, the spray rate used for evaluation was lower than previous experiments, 5 vs. 13 g ae/ha. The need to lower the dose with this formulation to prevent total chlorosis and/or necrosis was likely due to the addition of DMSO, Agri-Dex, and Triton X-155 which were not used in Example 9.

| Molecule | reproducibility of auxin tolerance from Trial #1 to Trial #2 (Nicotiana benthamiana [1]) | tolerance to picloram (Compound #5) (Nicotiana benthamiana [2]) | tolerance to positive control 4-amino-3,6-dichloropyridine-2-carboxylic acid (Compound #6) (Nicotiana benthamiana [2]) | tolerance to dicamba (Compound #3) (Nicotiana benthamiana [2]) | tolerance to quinclorac (Compound #1) (Nicotiana benthamiana [2]) | extent of cross-resistance to the six auxin compounds (Nicotiana benthamiana [2]) |
| --- | --- | --- | --- | --- | --- | --- |
| B1 | reproducible auxin tolerance | demonstrated tolerance to each of the three compounds using the 35% injury threshold | tolerance consistently occurred at the lower threshold (25% injury or less) | demonstrated tolerance to each of the three compounds using the 35% injury threshold | demonstrated tolerance to each of the three compounds using the 35% injury threshold | tolerance was observed against four compounds |
| B2 | reproducible auxin tolerance | demonstrated tolerance to each of the three compounds using the 35% injury threshold | tolerance consistently occurred at the lower threshold (25% injury or less) | demonstrated tolerance to each of the three compounds using the 35% injury threshold | demonstrated tolerance to each of the three compounds using the 35% injury threshold | tolerance was observed against four compounds |
